Test results as given in publication PMC11326647, “In vitro reconstitution reveals membrane clustering and RNA recruitment by the enteroviral AAA+ ATPase 2C” (PLOS Pathogens, 2023).

What was measured:
[1] = target: 2C (MBP removed by TEV in situ, bound to SUVs) (Poliovirus type 1 Mahoney, UniProt P03300 1128-1456); experiment: SUV co-flotation, TET fluorescence; conditions: protein: recombinant; tags: His6-MBP cleaved by TEV during assay; chain copies: 6; label: 5' TET on strand 1; blunt
mass photometry = target: the molecule itself; experiment: mass photometry
[2] = target: the molecule itself; experiment: cryo-electron tomography (mass from the volume of segmented densities)

B1: dsRNA 20-mer (oligos 1+2) (dsRNA)
RNA 1: CCUCUAACCACAGUCUGAUC
RNA 2: GAUCAGACUGUGGUUAGAGG
[1]
  binding result: binds

B2: His6-MBP-tagged full-length poliovirus 2C (residues 1-329) (natural protein)
chain: GDSWLKKFTEACNAAKGLEWVSNKISKFIDWLKEKIIPQARDKLEFVTKLRQLEMLENQISTIHQSCPSQEHQEILFNNVRWLSIQSKRFAPLYAVEAKRIQKLEHTINNYIQFKSKHRIEPVCLLVHGSPGTGKSVATNLIARAIAERENTSTYSLPPDPSHFDGYKQQGVVIMDDLNQNPDGADMKLFCQMVSTVEFIPPMASLEEKGILFTSNYVLASTNSSRISPPTVAHSDALARRFAFDMDIQVMNEYSRDGKLNMAMATEMCKNCHQPANFKRCCPLVCGKAIQLMDKSSRVRYSIDQITTMIINERNRRSNIGNCMEALFQ
notes: also called MBP-2C; His6MBP-2C
Mass photometry
  stoichiometry N: ~6

B3: full-length poliovirus 2C, MBP tag cleaved off in the presence of liposomes (membrane-bound 2C) (natural protein)
chain: GDSWLKKFTEACNAAKGLEWVSNKISKFIDWLKEKIIPQARDKLEFVTKLRQLEMLENQISTIHQSCPSQEHQEILFNNVRWLSIQSKRFAPLYAVEAKRIQKLEHTINNYIQFKSKHRIEPVCLLVHGSPGTGKSVATNLIARAIAERENTSTYSLPPDPSHFDGYKQQGVVIMDDLNQNPDGADMKLFCQMVSTVEFIPPMASLEEKGILFTSNYVLASTNSSRISPPTVAHSDALARRFAFDMDIQVMNEYSRDGKLNMAMATEMCKNCHQPANFKRCCPLVCGKAIQLMDKSSRVRYSIDQITTMIINERNRRSNIGNCMEALFQ
notes: also called full-length 2C
[2]
  stoichiometry N: ~6
